This note sets out measurements from PMC6592955.

Common to all, as to experiment: FRET or BRET; 2pFLIM-FRET in single dendritic spines of CA1 pyramidal neurons, organotypic hippocampal slices; train of two-photon glutamate uncaging (0.49 Hz, 30 pulses, sLTP protocol) without extracellular Mg^2+; room temperature (25–27 °C); 128 ms/frame; decay after the train fitted with a double exponential; T286A in slices of Camk2a^T286A knock-in mice
Background: BRET reads energy transfer from a luciferase to a nearby fluorophore.

Assay [1] deals with mEGFP-CaMKIIα (wildtype) (Rattus norvegicus) (UniProt P11275).
In assay [2] the target is mEGFP-CaMKIIα^T305A/T306A (Rattus norvegicus) (UniProt P11275).
The target of assay [3] is mEGFP-CaMKIIα^T286A (Rattus norvegicus) (UniProt P11275).

For the substance “mCherry-CaM (from UniProt P0DP26 1-149) (natural protein; other documents disagree on this pair)”, the dissociation time constant (tau fast, decay after the train) in assay [1] was 3.2 s.
In the case of “mCherry-CaM (from UniProt P0DP26 1-149) (natural protein)”, the figures for the dissociation time constant (tau fast, decay after the train) in assay [2] and in assay [3] were 9.3 s and 1 s, respectively.
